This passage reports IC50 results from US20170157198A1.

One may read the IC50 as the point on the concentration scale where inhibition reaches its midpoint. A high value points to lower potency.

Assay [1] concerns the target T1, TFPI (human TFPI-1α), as coated or added in the ELISA and model assays (human), P10646. The assay is described as follows: ELISA. As to conditions: modification not given.
Assay [2] deals with T1, TFPI (human TFPI-1α), as coated or …. The assay is described as follows: competition. The settings on record: modification not given.

B1: JBT0720 (peptide)
chain: FQSKGNVFVTGYFARLRAKL
In turn, B1 displayed an IC50 in assay [1] of 27 nM.

B2: JBT0681 (peptide)
chain: FQSKGAVFVFGYFARLRAKL
B2 came in with a half-inhibitory concentration (IC50) in assay [2] of 68 nM.

B3: JBT0783 (peptide)
chain: LKARLREFYGFVFVNKKSQF
In assay [1], B3 yielded an IC50 above 1670 nM.
